According to patent US20090017017A1 (SYMPHOGEN A S, published 2009):

T1: Rhesus D antigen (human, UniProt Q02161 2-417)
T1 construct: whole, on cells; Presented on RhD(+) erythrocytes; also called RhD; RhD antigen
T1 sequence (looked up): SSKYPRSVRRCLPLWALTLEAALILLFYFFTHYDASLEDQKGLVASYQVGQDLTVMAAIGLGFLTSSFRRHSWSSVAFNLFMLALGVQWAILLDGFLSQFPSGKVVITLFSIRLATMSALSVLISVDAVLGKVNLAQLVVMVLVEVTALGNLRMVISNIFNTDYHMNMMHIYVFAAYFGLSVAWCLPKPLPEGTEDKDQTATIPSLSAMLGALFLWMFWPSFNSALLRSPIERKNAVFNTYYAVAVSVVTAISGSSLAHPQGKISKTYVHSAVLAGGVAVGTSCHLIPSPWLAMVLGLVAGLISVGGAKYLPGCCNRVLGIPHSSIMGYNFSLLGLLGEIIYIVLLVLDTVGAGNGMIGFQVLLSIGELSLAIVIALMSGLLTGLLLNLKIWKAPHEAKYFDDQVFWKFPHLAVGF


What follows are binders tested against T1, Rhesus D antigen (assay: agglutination assay, Fab periplasmic extract on RhD(+)/RhD(-) RBC mix).
Description: (§1) After each round of panning single colonies were picked for analysis of their binding properties to red blood cells in agglutination assays. Briefly, single colonies were inoculated into 2×YT/100 μg/mL carbenicillin/1% glucose and shaken overnight at 37° C. The next day, DeepWell plates were inoculated using 900 μl 2×YT/100 μg/mL carbenicillin/0.1% glucose and 10 μl overnight culture. The plates were shaken for two hours at 37° C., before Fab induction was performed with addition of 300 μl 2×YT/100 μg/mL carbenicillin/0.25 mM IPTG per well. The plate was shaken overnight at 30° C. The following day, the bacteria were pelleted by centrifugation (3200×g, 4° C., 10 minutes), and re-suspended in 100 μl of 0.8 M NaCl, 0.2×PBS, 8 mM EDTA, and incubated for 15 minutes on ice in order to perform a periplasmic extraction of the Fab fragments. The plate was transferred to −20° C. and finally the suspension was thawed and centrifugation was performed for 10 minutes at 4° C. and 3200×g. The periplasmic extract was used in ELISA assays for analysis of Fab content and in agglutination assays to evaluate the binding potential of the individual Fab fragments.
(§2) The agglutination assay was performed as follows: RhD(−) and RhD(+) RBC were mixed in a 1:1 ratio, and washed 3 times in PBS. After the final wash, the cell mix was re-suspended in 1% BSA in PBS at a density of 10% cells, 50 μl was added to each well of a 96-plate. Periplasmic extracts were added to the wells. As a positive control Rhesogamma P immunoglobulin (Aventis) was used according to the manufacturer's instructions. The plates were incubated for one hour at room temperature with gentle shaking. The cells were washed three times with PBS, before the secondary antibody was added (goat anti-human Fab/FITC conjugate, Sigma F5512) in a 1:100 dilution. The plates were left for agglutination for one hour at room temperature without shaking. Fab fragments positive in the agglutination assay was determined by visual inspection, and recorded by taking a picture. Quantization of the binding activity of the Fab fragments was performed by FACS analysis of the agglutination samples.

binding result | Binder
binds | RhD159.119B09 (Fab, V domains shown, Tested as Fab in E. coli periplasmic extract (VH on human gamma 1 CH1, vector Em351)) VH: EVQLVETGGGLVQPGGSLRLSCAASGFSFRSYDMNWVRQAPGKGLEWVSYISGRGSTTYYADSVKGRFTISRDNAKNSLYLQMNSLRAEDTAVYYCARDLYGDYDPKSYYYYAMDVWGHGTTVTVSS VL: EIVMTQSPGTLSLSPGERATLSCRASHTVSSGYLAWYQQKPGQAPRLLIYGASNRATGVPDRFGGSGSGTDFTLTISRLEPEDSAVYFCQQYGTSPGVTFGQGTRLEIER
binds | RhD295.119B11 (Fab, V domains shown, Tested as Fab in E. coli periplasmic extract (VH on human gamma 1 CH1, vector Em351)) VH: QVQLVESGGGLVQPGGSLRLSCVGSGFTFRSFDMNWVRQAPGKGLEWISYINSRGNTRYYVDSVKGRFTISRDNAKNSLYLQMNSLRAEDTAVYYCARDLYGDYDPKSYYYYGMDVWGQGTMVTVSS VL: EIVLTQSPGTLSLSPGERATLSCRASQSFSSGYLAWYQQKPGQAPRLLIYGASNRATGIPDRFSGSGSGTDFTLTISRLEPEDFAVYYCQHYGSSPPITFGQGTRLEIKR
binds | RhD160.119C07 (Fab, V domains shown, Tested as Fab in E. coli periplasmic extract (VH on human gamma 1 CH1, vector Em351)) VH: EVQLVESGGGVVQPGRSLRLSCAASGFTFSNYGMHWVRQAPGKGLEWVAVIWYDGSNRFYADSVKGRFTISRDNSKNTLYLQMNNLRAEDTALYSCAREITTTVVVRRHYLMDIWGQGTTVTVSS VL: DIQLTQSPSSLSASVGDRVSITCRASQGISNSLAWYQQKPGKVPKLLIYAASTLQSGVPSRFSGGGSGTDFTLTISSLQPEDVATYYCQKYNSAPFAFGPGTKVDIKR
binds | RhD161.119E09 (Fab, V domains shown, Tested as Fab in E. coli periplasmic extract (VH on human gamma 1 CH1, vector Em351)) VH: EVQLVESGGGVVQSGRSLRLSCAASGFTFSNNGMHWVRQAPGKGLEWVAFIWYDGSNKYYADSVKGRFTISRDNSKNTLYLQMDGLRAEDSAVYYCAREEIAARLYSRYHYAMDVWGQGTMVTVSS VL: DIQMTQSPSFLSASVGDRVTITCRASQGIRRYLAWFQQKPGKAPKLLIFSASTLQSGVPSRFSGSGSGTEFTLTISSLQPEDFATYYCQQLSSYPPYTFGQGTKLEIKR
binds | RhD296.126A03 (Fab, V domains shown, Tested as Fab in E. coli periplasmic extract (VH on human gamma 1 CH1, vector Em351)) VH: EVQLVESGGGVVQPGRSLRLSCEASGFTFSNYGMHWFRQAPGKGLEWVAIIWYDGSNKHYADSVKGRFTISRDNSKNTLYLQMNSLRAEDTAVYFCAREIASRGYSRYLYYFDSWGQGTLVTVSS VL: DIQMTQSPSSLSASVGDRVTITCRASQSISSYLNWYQQKPGKAPKLLIFAASSLQSGVPSRFSGSGSGTDFSLTISSLQPEDFATYYCQQSYSSLALTFGGGTKVEIKR
binds | RhD294.119E10 (Fab, V domains shown, Tested as Fab in E. coli periplasmic extract (VH on human gamma 1 CH1, vector Em351)) VH: QVQLVESGGGVVQPGRSLRLSCAASGFSFSNYGMHWVRQAPGKGLEWVAVISYDGSEKYYADSVKGRFTISRDNSKKTLYLQMNSLRAEDTAMYYCKNKVGATRRAVVAVDIWGQGTMVTVSS VL: EIVLTQSPGTLSLSPRERATLSCRANQYVNSNHLAWYQQKPGQAPRLLLYGASRRATGIPDRFSGSGTGTDFTLIISRLEPEDFAVYFCQLYDHSRPMYTFGQGTKLEIKR
binds | RhD293.109A09 (Fab, V domains shown, Tested as Fab in E. coli periplasmic extract (VH on human gamma 1 CH1, vector Em351)) VH: EVQLVESGGGVVQPGRSLRLSCAASGFTFNTYGMHWVRQAPGKGLEWVAVIWYDGSNKYYADSVKGRFTISRDNSKNTLYLQMNSLRAEDTAVYYCAREVAVRGVIRYYYAMDVWGQGTTVTVSS VL: not shown

The binders below were run against T1, Rhesus D antigen (assay: Fab screening on RBC (agglutination, FACS)).
Description: as §1, §2

binding result | Binder
binds | RhD317.144A02 (Fab, V domains shown, Tested as Fab in E. coli periplasmic extract (VH on human gamma 1 CH1, vector Em351)) VH: QVQLQESGPGLVKPSGTLSLTCAVSGGSIRGSNWWSWVRQPPGKGLEWIGEIHHGGSTNYNPSLKSRVTISVDKSKNRFSLKLSSVTAADTAVYYCARGTSYYDSSGYSFRGLVAFDIWGQGTMVTVSS VL: EIVLTQSPGTLSLSPGERATLSCRASQSVSSAFLAWYQQKPGQAPRLLIYGASSRATGIPDRFSGSGSGTDFTLTISRLEPEDFAVYYCQQYGSFSITFGQGTRLEIKR
binds | RhD306.223E11 (Fab, V domains shown, Tested as Fab in E. coli periplasmic extract (VH on human gamma 1 CH1, vector Em351)) VH: QVQLVESGGGVVQPGRSLRLSCAASGFTFSSYGMHWVRQAPGKGLEWVAVIWYDGSNKYYADSVKGRFTISRDNSKNTLYLQMNTLRDDDTAVYYCAREGTLYSSSWYRRYYYYGMDAWGQGTTVTVSS VL: EIVLTQSPGTLSLSPGERVTLSCRPSRYIASDYLAWYQLRPGQAPKLLIYGASSRATGIPDRFSGVGSPTDFTLTISRLEPEDFAMYYCHYSGGSPPYPFGQGTRLDIKR
binds | RhD299.127A12 (Fab, V domains shown, Tested as Fab in E. coli periplasmic extract (VH on human gamma 1 CH1, vector Em351)) VH: QVQLVESGGGVVQPGRSLRLSCAASGFTFSNFGMHWVRQAPGKGLEWVAVIWYDGSNKDYADSVKGRFTISRDNSKRTLYLQMNSLRAEDTAVYYCARELARGRLRDLDYWGQGTLVTVSS VL: QAVVTQEPSLTVSPGGTVTLTCASSTGAVTTGYYPNWFQQKPGQAPRALIYSTSKKHSWTPARFSGSLLGGKAALTLSGVQPEDEAEYYCLLFYGGAQLGVFGGGTKLTVLG
binds | RhD301.160A04 (Fab, V domains shown, Tested as Fab in E. coli periplasmic extract (VH on human gamma 1 CH1, vector Em351)) VH: QVQLVESGGGVVQPGRSLRLSCAASGFTFSSYGMHWVRQAPGKGLEWVAVIWFDGGNKYYADSAKGRFTISRDNSKNTLYLQMNSLRAEDTAVYYCARDASVLSGLVTRRLVYYGMDVWGQGTTVTVSS VL: DVVMTQSPLSLPVTPGEPASISCRSSQSLLHRNGYNYLNWYLQKPGQSPQLLIYLGSNRASGVPDRFSGSGSGTDFTLKISGVEAEDVAFYYCMQGLRTPYTFGQGTKLEIKR
binds | RhD300.134H09 (Fab, V domains shown, Tested as Fab in E. coli periplasmic extract (VH on human gamma 1 CH1, vector Em351)) VH: QVQLVESGGGVVQPGRSLRLSCAASGFTFSSYGMHWVRQAPGKGLEWVAVIWYDGSNKYYADSVKGRFTISRDNSKNTLYLQMNSLRAEDTAVYYCAREFYTRSGLWSQGYSYYMDVWGKGTTVTVSS VL: QTVVTQEPSFSVSPGGTVTLTCGLSSGSVSARYYPSWYQQTPGQPPRTLIHSTNTRSSGVPDRFSGSILGNKAALTITGAQADDESDYYCVLYMGSGPWVFGGGTKLTVLG
binds | RhD305.181E06 (Fab, V domains shown, Tested as Fab in E. coli periplasmic extract (VH on human gamma 1 CH1, vector Em351)) VH: QVQLVESGGGVVQPGRSLRLSCAASGFTFSSYGMHWVRQAPGKGLEWVAGIWYDGSNKYYADSVKGRFTISRDNSRNTMYLQMNSLRAEDTAVYYCAREQGGYSSSWYRRYYYYNMDLWGQGTTVTVSS VL: EIVLTQSPGSLSLSPGERATLSCRASQSVSSSYLAWYQQKPGQAPRLLIYGPSSRATGIPDRFSGSGSGTDFTLTISRLEPEDFAVYYCQHFGNSRGTFGQGTKVEIRR
binds | RhD304.164B06 (Fab, V domains shown, Tested as Fab in E. coli periplasmic extract (VH on human gamma 1 CH1, vector Em351)) VH: QVQLVQSGGGVVQPGRSLRLSCAASGFTFSSYGMHWVRQAPGKGLEWVAVIWYDGSNKYYADSVKGRFTISRDNSKNTLYLQMNSLRAEDTAVYYCARETVVVAAKIRNHYYYAMDVWGQGTTVTVSS VL: DIQMTQSPSSLSASLGGTVTLTCRSSQFISRYLNWYQQHPGKVPRLLISGASRLQRGVPSRFTGGGSGTDFTLTIKNVQPDDIATYFCQHSYRSGRAFGQGTTVEVKR
binds | RhD302.160B10 (Fab, V domains shown, Tested as Fab in E. coli periplasmic extract (VH on human gamma 1 CH1, vector Em351)) VH: QVQLVESGGGVVQPGRSLRLSCAASGFTFSSYGMHWVRQAPGKGLEWVAFISYDGSNKYYADSVKGRFTISRDNSKNTLSLQMNSLRAEDTAVYYCAKEHGYYRSSWYRNYYYYGMDVWGQGTTVTVSS VL: DIQLTQSPSSLSASVGDRVTITCRASQSISSYLNWYKQRPGKAPKLLIYAASTLQSGVPSRFSGSGSGTDFALTISSLQAEDFATYYCQQTYSTLWTFGQGTKVEITR
binds | RhD303.160B11 (Fab, V domains shown, Tested as Fab in E. coli periplasmic extract (VH on human gamma 1 CH1, vector Em351)) VH: QVQLVESGGGVVQPERSLRLSCAASGFTFSSYGMHWVRQAPGKGLEWVAVISYDGSNKYYADSVKGRFTISRDNSKNTLYLQMNSLRAEDTAVYYCAKDEVGYSSSWYRRYYYYAMDVWGQGTTVTVSS VL: EIVLTQSPGTLSLSPGETATLSCRASQSVSDRDLAWYQQKSGQSPRLLMYGGSTRAPGIPVRFSGSGSGTEFTLTISSLQSEDFAIYYCQHYHDWPPTFGQGTRLEIKR
binds | RhD307.230E11 (Fab, V domains shown, Tested as Fab in E. coli periplasmic extract (VH on human gamma 1 CH1, vector Em351)) VH: QVQLVETGGGVVQPGRSLRLSCAASGFTFSSYGMHWVRQAPGKGLEWVAGIWYDGSNKYYGDSVKGRFTISRDNSRNTLYLHMNSLRADDTAVYYCAREHGGSRSGWYTLRLAYYFDYWGQGTLVTVSS VL: DIQLTQSPSSLSASVGDRVTITCRASQYINVYLNWYQHKAGRAPKLLIYAASNLQSGVPPRFIGSGSGTDFTLTISSLQSEDFATYYCLQSFTVPRTFGPGTKVDVKR
